Reference: patent US20260055369A1, “METHOD FOR GENERATING CELLS OF THE T CELL LINEAGE WITH ENGINEERING BROADLY REACTIVE HUMAN NOTCH LIGAND” (H. Lee Moffitt Cancer Center and Research Institute, Inc., priority 2022, published 2026)

B1: Delta^MAX: engineered human DLL4 consensus variant with 10 mutations combining DLL4.v1 and DLL4.v2 mutations; sequence matches SEQ ID NO: 4/10 (protein)
chain: SSVFQLQLQEFINERGVLASGRPCEPGCRTFFRVCLKHFQAVVSPGPCTFGTVSTPVLGTNSFAVRDDSSGGGRNPLQLPLNFTWPGTFSLIIEAWHAPGDDLRPEALPPDALISKFAIQGSLAVGQNWLLDEQTSTLTRLRYSYRVICSDNYYGDNCSRLCKKRNDYFGHYVCQPDGNPSCLPGWTGEYCQQPICLSGCHEQNGYCSKPAECLCRPGWQGRLCNECIPHPGCRHGTCSTPWQCLCDEGWGGLYCDQDLNYCTHHSPCKNGATCRNSGPRSYTCTCRPGYTGVDCELELSECDSNPCRNGGSCKDQEDGYHCLCPPGYYGLHCEHSTLSCADSPCFNGGSCRERNQGANYACECPPNFTGSNCE
B2: WT DLL4: human wild-type Delta-like 4 (N-EGF5, residues 27-400), SEQ ID NO: 1 (protein)
chain: SGVFQLQLQEFINERGVLASGRPCEPGCRTFFRVCLKHFQAVVSPGPCTFGTVSTPVLGTNSFAVRDDSSGGGRNPLQLPFNFTWPGTFSLIIEAWHAPGDDLRPEALPPDALISKIAIQGSLAVGQNWLLDEQTSTLTRLRYSYRVICSDNYYGDNCSRLCKKRNDHFGHYVCQPDGNLSCLPGWTGEYCQQPICLSGCHEQNGYCSKPAECLCRPGWQGRLCNECIPHNGCRHGTCSTPWQCTCDEGWGGLFCDQDLNYCTHHSPCKNGATCSNSGQRSYTCTCRPGYTGVDCELELSECDSNPCRNGGSCKDQEDGYHCLCPPGYYGLHCEHSTLSCADSPCFNGGSCRERNQGANYACECPPNFTGSNCE

Experiments:
[1] = Thermal denaturation by differential scanning fluorimetry (DSF); assay type: physicochemical; settings: for melting temperature (Tm): N-EGF5, 5 μM in HBS
Description: WT DLL4 and Delta^MAX (N-EGF5) were diluted at 5 μM in 20 μL of HBS buffer, and then combined with 10 μM (5×) SYPRO Orange (ThermoFisher Scientific) prepared in 100% DMSO (final DMSO concentration was 0.1%). This mix was equilibrated at room temperature for 30 min. Proteins were analyzed in a 96-well microtiter plate using a StepOnePlus RT-PCR system (Applied Biosystems) applying a continuous heating gradient from 25 to 99° C. with a step of 1% of temperature/min. Data was normalized and represented as the mean of three independent technical replicates. Similar Tm values were obtained for the replica measurements.

[2] = system: Notch1; test: Notch activation assay with ligands non-specifically adsorbed to plates (CHO-K1 N1-Gal4 fluorescent reporter); assay type: cell-based; settings: for EC50 for Notch1 activation: non-specifically adsorbed to tissue culture plates, 24 hours
Description: On day one, 2-fold serial dilutions of non-biotinylated DLL4 recombinant proteins (N-EGF5) were prepared in 100 μL of DPBS and used to coat 96-well plates (Coastar) for 1 hour at 37° C. WT DLL4 started at 66.56 ng/mm^2 and Delta^MAX at 0.33 ng/mm^2. Then, the wells were washed three times with 200 μL of DPBS to remove unbound proteins. Next, CHO-K1 N1-Gal4 cells in culture were detached with trypsin-EDTA 0.25% (Gibco) and manually counted. Appropriate dilutions were prepared in α-MEM media to ensure 30,000 CHO-K1 N1-Gal4 cells per well in 200 μL. Ligand-coated plates and reporter cell lines were incubated for 24 hours at 37° C. and 5% CO2. On day two, CHO-K1 N1-Gal4 cells were washed with 200 μL DPBS, detached with 30 μL of trypsin-EDTA 0.25%, and quenched with 200 μL of α-MEM media. Finally, cells were resuspended and H2B-mCitrine signal was measured by flow cytometry (BD Accuri C6 plus). CHO-K1 N1-Gal4 and ligand-lacking wells were used as a negative control. The measurements represent the mean fluorescent intensity as percentage of Notch activation±s.d. of three biological replicates. Notch activation was reference-subtracted from a well coated with 0.5% BSA containing CHO-K1 N1-Gal4 cells. Gating strategies for this experiment are detailed in FIG. 13A.

[3] = system: Notch1; test: Notch activation with ligand-oriented coupling on streptavidin plates (CHO-K1 N1-Gal4 reporter); assay type: cell-based; settings: for EC50: C-terminally biotinylated, streptavidin-coated plates (oriented coupling), 24 hours; for maximum level of Notch1 activation, oriented coupling versus non-specific adsorption: FIG. 3B
Description: For CHO-K1 N1-Gal4 reporters, on day one, tissue culture 96-well plates (Coastar) were pre-treated with 100 μL of streptavidin at 10 μg/mL (VWR) for 1 hour at 37° C., washed three times with 200 μL DPBS (Corning), and blocked with 100 μL BSA 2% (VWR) for 1 hour at 37° C. Excess BSA was removed by washing three times with 200 μL DPBS (Corning), and 100 μL of DPBS containing biotinylated DLL4 proteins were coupled to streptavidin for 1 hour at 37° C. (2-fold serial dilutions starting at 50 nM). Non-coupled DLL4 proteins were removed by washing three times with 200 μL DPBS. Next, Notch reporter cells in culture were detached with trypsin-EDTA 0.25% (Gibco), and 30,000 cells in α-MEM media (200 μL) were added into individual wells. Assay plates were incubated for 24 hours at 37° C., and 5% CO2. On day two, CHO-K1 N1-Gal4 cells were washed with 200 μL DPBS, detached with 30 μL of trypsin-EDTA 0.25%, and 200 μL of α-MEM media added. Cells were resuspended and Notch activation was measured as a function of fluorescence by flow cytometry (BD Accuri C6 plus). CHO-K1 N1-Gal4 cells and lacking-ligand wells were used as a negative control. The measurements represent the mean fluorescent intensity as percentage of Notch activation±s.d. of three biological replicates. Notch activation was reference-subtracted from a well coated with a non-related control protein (PA domain of RNF128).

[4] = system: Notch3; test: Notch inhibition assay in co-culture format (U2OS Notch3 reporter with HEK293T expressing DLL4, DLL1, JAG1 or JAG2); assay type: cell-based, human; settings: 3 μM soluble protein; signaling by DLL1, DLL4, JAG1 and JAG2 expressing HEK293T cells
Description: For inhibition of Notch ligand-expressing cell lines, on day one, U2OS Notch3 reporter cells (signal receivers) were detached with trypsin-EDTA, washed with DPBS, and added to 6-well plates. On day two, U2OS cells were transfected as described above. On day three, signal receiver cells were detached with trypsin-EDTA, and dilutions of 400,000 cells/mL were prepared in DMEM. On the one hand, soluble DLL4 variants were prepared at 6,000 nM in DPBS, combined in 1:1 dilution with signal receiver cells, and incubated for 15 min at RT. On the other hand, HEK293T-expressing WT DLL4, DLL1, JAG1, JAG2 were detached with trypsin-EDTA, washed with DPBS and 200,000 cells/mL stocks prepared in DMEM. One hundred microliters of both signal senders and pre-blocked signal receivers were combined in cell ratio 1:1 and incubated for 24 hours at 37° C., and 5% CO2. On day four, luciferase firefly and Renilla signals were determined with Dual-Glo luciferase assay system (Promega) using a GloMax luminometer (Promega). Doxycycline at 2 μg/mL was kept for all the conditions. A luminescence ratio firefly:Renilla was determined for every well. Notch activation of each Notch3:ligand pair was normalized to the signal of Notch3 reporters in the presence of HEK293T lacking ligands. Each Notch signaling pair was set at 100% activation and soluble DLL4 treatments were relative to its corresponding pair. […]

Chain of Notch1 (P46531 19-1664 limits assumed): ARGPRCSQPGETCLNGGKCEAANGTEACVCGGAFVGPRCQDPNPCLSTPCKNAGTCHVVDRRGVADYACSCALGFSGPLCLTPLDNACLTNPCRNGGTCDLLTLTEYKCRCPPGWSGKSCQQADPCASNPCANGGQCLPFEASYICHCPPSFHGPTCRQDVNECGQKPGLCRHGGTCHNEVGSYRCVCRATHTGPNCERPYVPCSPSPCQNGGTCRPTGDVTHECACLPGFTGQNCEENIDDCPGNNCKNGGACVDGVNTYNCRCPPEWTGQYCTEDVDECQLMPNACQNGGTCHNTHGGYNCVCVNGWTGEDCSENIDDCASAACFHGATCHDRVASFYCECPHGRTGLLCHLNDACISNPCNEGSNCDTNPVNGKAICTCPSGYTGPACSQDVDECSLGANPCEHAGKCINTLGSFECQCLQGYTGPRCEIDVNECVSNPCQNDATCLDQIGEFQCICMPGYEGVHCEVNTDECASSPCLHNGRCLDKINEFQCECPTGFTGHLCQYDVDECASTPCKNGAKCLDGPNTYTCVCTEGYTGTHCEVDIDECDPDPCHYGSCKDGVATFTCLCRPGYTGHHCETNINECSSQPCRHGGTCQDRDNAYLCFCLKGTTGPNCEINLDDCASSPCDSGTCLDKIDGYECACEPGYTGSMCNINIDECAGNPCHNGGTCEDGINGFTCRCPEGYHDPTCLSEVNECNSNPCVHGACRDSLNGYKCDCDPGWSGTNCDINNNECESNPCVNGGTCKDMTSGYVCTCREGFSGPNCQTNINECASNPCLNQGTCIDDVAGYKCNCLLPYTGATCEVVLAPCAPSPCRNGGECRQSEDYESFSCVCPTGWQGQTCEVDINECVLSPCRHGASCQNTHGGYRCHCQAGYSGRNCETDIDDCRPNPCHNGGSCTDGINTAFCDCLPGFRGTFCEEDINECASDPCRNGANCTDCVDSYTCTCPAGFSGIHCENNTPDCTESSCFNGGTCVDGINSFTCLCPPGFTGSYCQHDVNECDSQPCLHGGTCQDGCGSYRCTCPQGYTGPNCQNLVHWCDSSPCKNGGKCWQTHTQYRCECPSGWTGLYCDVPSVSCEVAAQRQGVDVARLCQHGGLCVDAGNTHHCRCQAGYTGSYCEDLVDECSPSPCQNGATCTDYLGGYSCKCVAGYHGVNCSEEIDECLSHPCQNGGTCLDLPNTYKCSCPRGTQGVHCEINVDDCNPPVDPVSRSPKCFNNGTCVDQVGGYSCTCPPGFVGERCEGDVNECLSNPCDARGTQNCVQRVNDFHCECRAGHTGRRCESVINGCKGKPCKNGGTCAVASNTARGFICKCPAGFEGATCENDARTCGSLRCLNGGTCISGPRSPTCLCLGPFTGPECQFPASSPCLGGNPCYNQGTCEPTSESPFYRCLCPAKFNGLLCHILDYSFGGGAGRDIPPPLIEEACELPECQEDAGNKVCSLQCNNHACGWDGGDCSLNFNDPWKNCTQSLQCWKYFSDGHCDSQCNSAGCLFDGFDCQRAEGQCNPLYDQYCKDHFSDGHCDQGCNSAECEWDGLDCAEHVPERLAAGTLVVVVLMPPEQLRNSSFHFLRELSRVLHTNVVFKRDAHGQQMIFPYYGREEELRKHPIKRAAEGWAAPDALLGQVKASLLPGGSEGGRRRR
Chain of Notch1 (P46531 1665-1756 limits assumed): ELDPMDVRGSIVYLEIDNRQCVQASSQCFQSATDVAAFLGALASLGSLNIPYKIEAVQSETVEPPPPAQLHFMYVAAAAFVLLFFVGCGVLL
Chain of Notch3 (Q9UM47 197-505 limits assumed): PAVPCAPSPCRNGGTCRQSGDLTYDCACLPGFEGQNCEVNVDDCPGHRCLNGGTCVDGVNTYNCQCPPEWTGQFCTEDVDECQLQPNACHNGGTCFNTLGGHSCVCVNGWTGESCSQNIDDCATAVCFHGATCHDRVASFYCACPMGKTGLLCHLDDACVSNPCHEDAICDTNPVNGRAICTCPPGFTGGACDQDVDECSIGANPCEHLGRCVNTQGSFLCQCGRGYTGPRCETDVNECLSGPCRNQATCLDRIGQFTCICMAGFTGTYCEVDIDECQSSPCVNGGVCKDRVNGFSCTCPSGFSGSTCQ

Molecule | increase in Tm relative to WT DLL4 (ΔTm) [1] [°C] | melting temperature (Tm) [1] [°C] | Emax greater than that induced by WT DLL4 ([2]; non-specific adsorption) [%] | EC50 for Notch1 activation [2] [ng/mm^2] | improvement in Notch activation efficiency vs WT DLL4 ([2]; ratio of EC50, non-specific adsorption) [fold] | EC50 [3] [nM] | maximum level of Notch1 activation, oriented coupling versus non-specific adsorption [3] | reduction in reporter signal [4]
B1 | 11 | 58 | 20 | 0.009 | 250 | 1.7 | higher maximum level | 70-85%
B2 |  | 47 |  | 2.3 |  | 16 | higher maximum level | 10-40%
